Reference: patent publication US20180274043A1

Target: human HER3 receptor (human) (UniProt P21860)
Assay: cell-based or functional assay

fold induction of 6×JNK-Luc reporter activity at 100 ng/ml NRG1: 4.2 fold
fold induction of JNK-Luc (3 copies of AP-1) reporter activity at 100 ng/ml NRG1: 2.6 fold
Substance: neuregulin-1 (from UniProt Q02297 177-241) (ligand)
